One substance from US20220090025A1 can be followed below.

For this assay, the target named is CAR (coxsackie and adenovirus receptor) (human) (UniProt P78310). Description: cell-based or functional assay.
Sequence of UniProt P78310 (P78310 20-365): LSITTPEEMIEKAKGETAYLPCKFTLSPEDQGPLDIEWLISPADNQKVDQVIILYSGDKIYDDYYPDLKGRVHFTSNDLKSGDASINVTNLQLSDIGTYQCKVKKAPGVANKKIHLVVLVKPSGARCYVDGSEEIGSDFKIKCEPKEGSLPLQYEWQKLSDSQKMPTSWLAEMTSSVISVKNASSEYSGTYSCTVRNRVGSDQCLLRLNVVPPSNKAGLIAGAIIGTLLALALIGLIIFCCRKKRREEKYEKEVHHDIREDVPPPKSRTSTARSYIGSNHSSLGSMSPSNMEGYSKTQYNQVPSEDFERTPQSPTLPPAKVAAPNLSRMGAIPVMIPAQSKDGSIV

With “CAR-specific fiber protein (fiber protein of adenovirus) (ligand)”, the reduction of GFP transduction of U343 cells by naked type Ad (MOI 20) after pretreatment with fiber protein at 0.2 µg/ml, flow cytometry was 67 % reduced and the reduction of GFP transduction of U343 cells by naked type Ad (MOI 20) after pretreatment with fiber protein at 2 µg/ml, flow cytometry was found to be 90 % reduced.
